Values quoted from earlier work as cited in publication PMC10330345.

Molecular target: BTN3A1 272-513 (Homo sapiens) (UniProt O00481)
Test: ITC

BTN3A1 272-513 (Homo sapiens), sequence (O00481 272-513): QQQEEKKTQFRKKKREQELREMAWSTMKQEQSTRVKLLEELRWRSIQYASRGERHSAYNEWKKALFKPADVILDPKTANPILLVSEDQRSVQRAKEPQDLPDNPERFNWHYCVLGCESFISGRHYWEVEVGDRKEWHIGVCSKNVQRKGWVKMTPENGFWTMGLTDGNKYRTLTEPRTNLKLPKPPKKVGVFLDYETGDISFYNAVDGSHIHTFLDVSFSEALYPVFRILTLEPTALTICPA

Substance: BTN2A1 271-527 (from UniProt Q7KYR7)
- Kd: 890 nM
